# According to US20050164311A1, “Biological assay detection method” (priority 2001, published 2005):
# Tests used:
# [1] = target: Porcine carboxypeptidase B (porcine) (UniProt P09955); experiment: cell-based or functional assay
# [2] = target: T1, Porcine carboxypeptidase B (CPB) (Sus scrofa, UniProt P09955); experiment: Carboxypeptidase B assay, TR-FRET detection with [Eu3+]GST-PDZ, inhibition experiments; assay type: biochemical; settings: CPB 100 pM; substrate biotin-HRRSARYLESSVR-OH; quenched after 30 min; condition Dilution
# T1 construct: purchased Sigma (St. Louis, Mo.)
# T1 sequence (P09955 111-416): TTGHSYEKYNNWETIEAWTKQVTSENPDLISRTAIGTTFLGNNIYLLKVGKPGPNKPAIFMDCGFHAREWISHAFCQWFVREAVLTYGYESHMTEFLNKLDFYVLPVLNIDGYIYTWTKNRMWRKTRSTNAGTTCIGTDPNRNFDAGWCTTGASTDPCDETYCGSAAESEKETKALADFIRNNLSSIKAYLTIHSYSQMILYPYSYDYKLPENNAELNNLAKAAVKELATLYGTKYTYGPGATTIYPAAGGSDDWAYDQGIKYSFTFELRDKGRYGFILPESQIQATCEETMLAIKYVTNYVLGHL
# Procedure: (§1) Assays were carried out in 96-well black, low binding, Microfluor2 plates (Dynex, Va.). Assay plates were read using a Victor^2V microplate analyzer (Perkin Elmer Wallac (Turku, Finland)), with 337 nm excitation. Fluorescence emission was measured at 665 nm for FRET signal and 615 nm for Eu^3+ chelate, and results are expressed as the ratio of fluorescence intensities, FI665nm/FI615 nm.
# For the initial time courses, 20 μl of biotin-HRRSARYLESSVR-OH (SEQ. ID No. 7), (100 nM in 10 mM phosphate, 150 mM NaCl, 0.05% tween-20, 0.1% BSA (PBSTB)) was mixed with 20 μl of CPB (2× in PBSTB), and the reaction quenched with 10 μl of a 5×TR-FET mixture of PCI (1 μM, [Eu^3+]GST-PDZ (6.25 nM), and [X1665]SA (62.5 nM) in PBSTB, for 60 min, at 25° C., and read.
# For the inhibition experiments, 2 Ill of inhibitor was added to 20 μl CPB (200 pM in PBSTB), and the reaction was initiated by addition of 20 μl peptide substrate (100 nM in PBSTB). The reaction was quenched after 30 min with the addition of 10 μl of 5×TR-FRET quenching/detection mixture, as described above. Background was measured from a reaction mixture with substrate, detection mixture and no enzyme.
# Biotin-…-OH [3] = experiment: TR-FRET, 4 nM product peptide plus 36 nM masked substrate biotin-…-NH2 (Asp-N pair); data not shown
# Biotin-…-OH [4] = experiment: TR-FRET, 4 nM product peptide plus 36 nM masked substrate biotin-…-OH (carboxypeptidase B pair); data not shown
# Biotin-…-OH [5] = experiment: TR-FRET, 4 nM product peptide plus 36 nM masked substrate biotin-…pSAV-OH; optimal [Eu3+]GST-PDZ 0.3 nM and [XL665]SA 3.1 nM
# [6] = target: T2, Protein phosphatase 2A1 (PP2A1) (Homo sapiens, UniProt P67775); experiment: Protein phosphatase assay, TR-FRET detection with [Eu3+]GST-PDZ, inhibition experiments; assay type: biochemical; settings: PP2A1 15 pM; substrate biotin-HRRAARYLEpSAV-OH; quenched after 60 min; condition Dilution
# T2 construct: purchased Biomol Research Laboratories (Plymouth Meeting, Pa.)
# Procedure: as §1
# For the initial time courses, 20 μl of biotin-HRRAARYLEpSAV-OH (SEQ. ID No. 4) (100 nM in phosphatase buffer: 50 mM Tris, pH 7.4, 10% glycerol, 14 mM β-mercaptoethanol, 0.2 mg/ml BSA) was mixed with 20 μl of PP2A1 (2× in phosphatase buffer), and the reaction solution was incubated at 32° C. At different time points, 40 μl aliquots were quenched with […] of a 5×TR-FRET mixture of Cantharidic Acid (5 μM, [Eu^3+]GST-PDZ (1.6 nM), and [665]SA (15.6 nM) in PBSTB, for 60 min, at 25° C., and read.
# For the inhibition experiments, 2 μl of inhibitor were added to 20 μl PP2A1 (30 pM in phosphatase buffer), and the reaction was initiated by addition of 20 μl of peptide substrate (100 nM in phosphatase buffer). The reaction was quenched after 60 min with the addition of 10 μl of 5×TR-FRET quenching/detection mixture, as described above. Background was measured from a reaction mixture with substrate, detection mixture and no enzyme.
# T2 sequence (P63151 whole entry): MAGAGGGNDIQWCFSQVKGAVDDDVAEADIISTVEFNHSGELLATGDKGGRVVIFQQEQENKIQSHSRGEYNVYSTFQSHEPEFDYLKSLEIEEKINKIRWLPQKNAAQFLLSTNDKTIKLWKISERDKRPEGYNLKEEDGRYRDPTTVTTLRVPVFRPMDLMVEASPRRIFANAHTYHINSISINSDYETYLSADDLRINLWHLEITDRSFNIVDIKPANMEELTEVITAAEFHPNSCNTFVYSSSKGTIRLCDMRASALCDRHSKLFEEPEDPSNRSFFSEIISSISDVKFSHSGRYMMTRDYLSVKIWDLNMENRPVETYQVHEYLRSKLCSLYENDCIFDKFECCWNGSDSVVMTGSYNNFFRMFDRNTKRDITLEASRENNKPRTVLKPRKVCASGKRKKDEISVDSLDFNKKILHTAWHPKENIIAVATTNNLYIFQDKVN
# T2 sequence (P30153 whole entry, further chain): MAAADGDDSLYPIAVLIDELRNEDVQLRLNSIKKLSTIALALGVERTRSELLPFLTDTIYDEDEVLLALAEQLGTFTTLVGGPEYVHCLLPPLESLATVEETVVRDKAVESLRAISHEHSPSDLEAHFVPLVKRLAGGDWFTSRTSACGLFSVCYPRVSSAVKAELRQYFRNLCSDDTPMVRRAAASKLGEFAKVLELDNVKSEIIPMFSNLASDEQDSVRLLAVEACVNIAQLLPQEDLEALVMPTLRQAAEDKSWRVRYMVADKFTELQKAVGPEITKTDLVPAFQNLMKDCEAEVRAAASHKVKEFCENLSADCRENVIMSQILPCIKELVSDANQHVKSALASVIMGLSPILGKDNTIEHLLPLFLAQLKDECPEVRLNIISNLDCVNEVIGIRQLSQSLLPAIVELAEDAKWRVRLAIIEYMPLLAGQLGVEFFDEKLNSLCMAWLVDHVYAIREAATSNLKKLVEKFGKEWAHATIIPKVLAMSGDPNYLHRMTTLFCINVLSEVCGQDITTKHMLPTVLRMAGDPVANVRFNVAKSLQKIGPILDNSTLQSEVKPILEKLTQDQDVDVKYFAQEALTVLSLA
# T2 sequence (P67775 whole entry): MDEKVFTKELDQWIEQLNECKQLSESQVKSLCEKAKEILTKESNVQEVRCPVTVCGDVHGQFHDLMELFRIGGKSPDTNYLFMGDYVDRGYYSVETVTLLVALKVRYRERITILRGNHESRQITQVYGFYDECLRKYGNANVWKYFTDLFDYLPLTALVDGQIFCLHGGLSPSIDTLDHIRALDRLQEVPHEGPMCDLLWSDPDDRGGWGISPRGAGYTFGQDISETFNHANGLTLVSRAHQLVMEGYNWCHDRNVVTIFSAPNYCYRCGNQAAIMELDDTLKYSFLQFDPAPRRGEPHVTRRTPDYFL
molecule,measurement,setting,value
potato carboxypeptidase inhibitor (from UniProt P01075 1-39),"IC50 (inhibition of CPB hydrolysis of biotin-…-OH, TR-FRET read-out)",[1],10 nM
PCI: potato carboxypeptidase inhibitor from Sigma; the abbreviation list calls it protein carboxypeptidase inhibitor (QQHADPICNKPCKTHDDCSGAWFCQACWNSARTCGPYVG),IC50,[2],10 nM
"[Eu3+]GST-PDZ (GST fused to PDZ module 3 of PSD-95, labeled with Eu3+ chelate ITC) (from UniProt P31016 300-402)",signal-to-background,Biotin-…-OH [3],> 10 fold
same,signal-to-background,Biotin-…-OH [4],> 10 fold
same,signal-to-background,Biotin-…-OH [5],> 10 fold
"CC1(C(=O)O)C2CCC(O2)C1(C)C(=O)O (stereo not shown) [Cantharidic Acid, cantharidic acid]",IC50,[6],56 nM
"C=C1[C@@H](O)[C@@H]2O[C@]3(CC[C@H](/C=C/[C@@H](C)[C@@H]4CC(C)=C[C@@]5(O[C@H](C[C@@](C)(O)C(=O)O)CC[C@H]5O)O4)O3)CC[C@H]2O[C@@H]1[C@@H](O)C[C@H](C)[C@H]1O[C@@]2(CCCCO2)CC[C@H]1C [Okadaic Acid, okadaic acid]",IC50,[6],0.015 nM
